The values below are quoted from earlier work in publication PMC3409459, “Absorption, distribution, metabolism and excretion of peginesatide, a novel erythropoiesis-stimulating agent, in rats” (Xenobiotica; the Fate of Foreign Compounds in Biological …, 2011).

Where two headings read alike, the source gives them in different places.

For series [1] the following is noted: ref Fan et al. 2006; cited from earlier work. Here is the method: Multiple clearance mechanisms may be involved with peginesatide as clearance involves glomerular filtration; a presumably non-saturable elimination. […] High concentrations of radioactivity were also measured in the liver. In addition, negligible excretion (<0.1%) of the radiolabel was d ...

The conditions of series [2]: ref Im et al. 2010, cited from earlier work. The source says:
The totality of the metabolism data is consistent with in vitro studies conducted in liver and kidney micro-somes and S9 fractions from rats, monkeys, and human donors ([Im et al. 2010]).

Consider Peginesatide, for which, in series [1], the “clearance in a rat chronic renal insufficiency model compared to a rat with normal renal function” value is listed as “twofold lower clearance”. Moreover, the “metabolites after incubation with microsomes (metabolic stability in vitro)” value in series [2] (human donor liver and kidney microsomes and S9 fractions) was “no metabolites were observed”; in series [2] (monkey liver and kidney microsomes and S9 fractions), “no metabolites were observed”; in series [2] (rat liver and kidney microsomes and S9 fractions), “no metabolites were observed”.
